Each block holds one binder with its values, some of them ahead of it. Where no end group is shown, it is not given here. The star is where a group is joined. FITC = O=C1OC2(c3ccc(O)cc3Oc3cc(O)ccc32)c2ccc(NC(=S)*)cc21
What was measured:
[1] = molecular target: T1, regulatory-associated protein of mTOR (RAPTOR) (UniProt Q8N122 1-1335); test: fluorescence polarisation; fluorescence anisotropy; purified RAPTOR with N-terminally FITC-labeled synthetic LST2 TOS peptides; N = 3; conditions: both partners purified
T1 construct: RAPTOR, regulatory-associated protein of mTOR; purified protein; Construct, host and tags are in SI Appendix, Material and Methods; In the cryo-EM rows RAPTOR stood as a subunit of mTORC1; source: purified
T1 sequence (Q8N122 whole entry): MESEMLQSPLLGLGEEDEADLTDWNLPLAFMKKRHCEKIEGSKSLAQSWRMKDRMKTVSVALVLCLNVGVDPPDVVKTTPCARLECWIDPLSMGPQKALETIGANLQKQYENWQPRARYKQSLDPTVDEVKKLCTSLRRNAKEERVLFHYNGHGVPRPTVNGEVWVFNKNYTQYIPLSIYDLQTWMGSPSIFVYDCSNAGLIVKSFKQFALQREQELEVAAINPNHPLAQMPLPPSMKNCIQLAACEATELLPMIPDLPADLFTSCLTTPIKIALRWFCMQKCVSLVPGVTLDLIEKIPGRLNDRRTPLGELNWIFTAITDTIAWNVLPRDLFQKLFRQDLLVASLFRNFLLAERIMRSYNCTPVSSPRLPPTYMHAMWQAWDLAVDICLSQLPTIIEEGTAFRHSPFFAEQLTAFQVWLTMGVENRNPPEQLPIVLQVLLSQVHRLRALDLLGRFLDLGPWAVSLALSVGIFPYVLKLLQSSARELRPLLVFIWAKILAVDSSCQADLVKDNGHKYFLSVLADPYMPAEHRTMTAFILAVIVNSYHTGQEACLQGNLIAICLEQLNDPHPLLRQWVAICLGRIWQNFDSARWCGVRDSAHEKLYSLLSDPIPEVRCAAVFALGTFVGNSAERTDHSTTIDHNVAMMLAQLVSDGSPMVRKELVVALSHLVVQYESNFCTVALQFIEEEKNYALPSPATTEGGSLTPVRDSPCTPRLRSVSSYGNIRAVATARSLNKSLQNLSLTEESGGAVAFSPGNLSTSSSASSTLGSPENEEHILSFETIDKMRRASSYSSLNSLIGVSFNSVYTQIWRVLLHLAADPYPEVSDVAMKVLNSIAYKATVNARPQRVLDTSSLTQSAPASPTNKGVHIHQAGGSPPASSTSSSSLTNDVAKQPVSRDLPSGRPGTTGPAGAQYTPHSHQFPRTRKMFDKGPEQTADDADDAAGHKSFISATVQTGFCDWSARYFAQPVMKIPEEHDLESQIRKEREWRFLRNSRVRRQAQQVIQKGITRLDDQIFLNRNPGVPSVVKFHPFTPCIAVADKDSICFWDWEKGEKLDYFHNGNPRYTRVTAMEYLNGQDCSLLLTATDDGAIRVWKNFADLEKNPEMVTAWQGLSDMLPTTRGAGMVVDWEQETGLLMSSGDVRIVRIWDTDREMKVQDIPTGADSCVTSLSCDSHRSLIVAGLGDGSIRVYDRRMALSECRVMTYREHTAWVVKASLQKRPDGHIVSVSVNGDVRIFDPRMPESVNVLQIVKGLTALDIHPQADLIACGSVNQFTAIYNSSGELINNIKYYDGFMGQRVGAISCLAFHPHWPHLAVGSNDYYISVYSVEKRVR

[2] = molecular target: T1, regulatory-associated protein of mTOR …; test: co-IP; coimmunoprecipitation with purified RAPTOR and purified full-length LST2 (WT or F401A); blot quantified, N = 3; conditions: both partners purified

Kd [1]: 330 nM
B1: FITC-labeled LST2 TOS peptide including flanking residues (amino acids 395 to 407) (peptide, UniProt Q9HCC9 395-407, looked up)
peptide: {FITC}-DEEERVFFMDDVE
notes: also called LST2 TOS peptide WT; FITC-labeled peptide; source: synthetic peptide

fold reduction of binding against LST2-WT [2]: 9 fold
B2: full-length LST2 F401A (natural protein, UniProt Q9HCC9 1-887, looked up)
chain: MMNRFRKWLYKPKRSDPQLLARFYYADEELNQVAAELDSLDGRKDPQRCTLLVSQFRSCQDNVLNIINQIMDECIPQDRAPRDFCVKFPEEIRHDNLAGQLWFGAECLAAGSIIMNRELESMAMRPLAKELTRSLEDVRGALRDQALRDLNTYTEKMREALRHFDVLFAEFELSYVSAMVPVKSPREYYVQQEVIVLFCETVERALDFGYLTQDMIDDYEPALMFSIPRLAIVCGLVVYADGPLNLDRKVEDMSELFRPFHTLLRKIRDLLQTLTEEELHTLERNLCISQDVEFPIRADVQGPAALAPALSAPLPPEGPLSAKAKDPDAELACSMQYDDQELEQLSRMVHRAGDEMSSLLSPPIACQSPAHRPGAEGSPGGEASPGRPRLRSGSDEEERVAFMDDVEGTAEALARPESPAGPFGWAGSTWADPQEKGQGGPGGAAGISLPASEKEEDLSNNNLEAEGTDGASLAGTSSCSCLDSRLHLDGWEVGADDAETAEMIAHRTGGMKLSATVIFNPKSPTSLDSAVATQEAASEPVAEGMDGGPHKLSTGATNCLLHSCVCCGSCGDSREDVVERLREKCSPGGVIGASYAAGLAKASDRAPERQEEAPPPSEDASNGREPKAPTSDKCLPHTSGSQVDTASGLQGEAGVAGQQEPEARELHAGSPSAHEAPQALSGSSSSTAGSCSSDKMGPEAAPAATHAAPQATREKIRSRFHGSHDLIHRLFVCISGVADQLQTNYASDLRSILKTLFEVMATKPETDDKEKLRKVTQTLRSAALEDCALCQETLSSSELAAKTRDGDFEDPPEWVPDEACGFCTACKAPFTVIRRKHHCRSCGKIFCSRCSSHSAPLPRYGQVKPVRVCTHCYMFHVTPFYSDKAGL
notes: LST2 (ZFYVE28), full length, with F401A in the TOS motif; Tags and host in SI Appendix; also called TOS-deficient LST2-F401A; source: purified

From publication PMC11348030, “mTORC1 phosphorylates and stabilizes LST2 to negatively regulate EGFR” (Proceedings of the National Academy of Sciences of the …, 2024)
